One data set can be described thus: in vitro. To be noted: human, human kidney microsomes.
The next data set concerns human kidney microsomes. In words: Stability in human kidney microsome incubation system.
Data set [1] has as its system insulin-induced hypoglycemia rat model. In words: Efficacy in insulin-induced hypoglycemic rat model. To be noted: insulin 0.65 IU/kg subcutaneous at T0, phosphate buffer at 45 min (model control). Format: in vivo, SD rats.
Data set [2] has as its target human glucagon receptor (GCGR) (human, UniProt P47871 26-477). In words: cell-based or functional assay.
Data set [3] deals with human glucagon-like peptide-1 receptor (GLP-1R) (human, UniProt P43220 24-463). In words: cell-based or functional assay.
Data set [4] deals with T1, human glucose-dependent insulinotropic polypeptide receptor (GIPR) (human, UniProt P48546 22-466).
T1 sequence (looked up): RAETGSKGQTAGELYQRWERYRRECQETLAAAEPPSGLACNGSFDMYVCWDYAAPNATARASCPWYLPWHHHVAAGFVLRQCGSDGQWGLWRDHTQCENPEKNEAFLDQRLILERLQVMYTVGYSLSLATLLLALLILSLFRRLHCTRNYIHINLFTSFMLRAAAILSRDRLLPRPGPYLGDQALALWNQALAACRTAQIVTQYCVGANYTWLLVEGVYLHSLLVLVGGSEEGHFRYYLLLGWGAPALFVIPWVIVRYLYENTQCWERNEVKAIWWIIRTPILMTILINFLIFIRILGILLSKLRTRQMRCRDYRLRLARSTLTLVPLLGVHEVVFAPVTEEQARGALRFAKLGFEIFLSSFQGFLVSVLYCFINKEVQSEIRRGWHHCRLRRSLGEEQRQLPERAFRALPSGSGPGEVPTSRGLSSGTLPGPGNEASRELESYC
Put plainly: cell-based or functional assay.

Where a name gives a salt, the structure may show the parent alone. [ ]: non-standard residue; d: D form. Aib = CC(C)(N)C(=O)O

Sequence of human glucagon receptor (GCGR) (P47871 26-477): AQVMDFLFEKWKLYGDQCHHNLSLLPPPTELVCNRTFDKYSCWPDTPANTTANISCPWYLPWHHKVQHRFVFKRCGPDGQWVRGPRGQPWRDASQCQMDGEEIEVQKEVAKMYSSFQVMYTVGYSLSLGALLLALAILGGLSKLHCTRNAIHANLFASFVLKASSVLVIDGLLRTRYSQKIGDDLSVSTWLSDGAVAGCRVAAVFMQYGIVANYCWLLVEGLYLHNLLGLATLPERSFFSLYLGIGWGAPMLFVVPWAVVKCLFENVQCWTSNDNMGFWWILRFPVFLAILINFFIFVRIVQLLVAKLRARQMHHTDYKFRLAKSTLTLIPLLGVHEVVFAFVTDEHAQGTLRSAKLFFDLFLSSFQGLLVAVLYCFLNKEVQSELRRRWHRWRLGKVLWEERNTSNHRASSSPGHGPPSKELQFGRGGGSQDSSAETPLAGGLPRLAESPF

As usually defined, the half-life is the time needed for the level to fall by half in the phase considered. Higher therefore signals slow decline. A word on the share remaining: it is the share of the starting amount still present when the sample was taken. In the case of `CN(C)CCCOc1nn(Cc2ccccc2)c2ccccc12` [Benzydamine hydrochloride, benzydamine hydrochloride], in the data set “in vitro”, the half-life at 1 μM was 1.1 h; the amount remaining at 0.25 h, 1 μM came out at 83.1%; the fraction remaining at 0.5 h, 1 μM amounted to 70.8%; the amount remaining at 1 h, 1 μM came out at 54.2%. In the data set with human kidney microsomes (With NADPH), the “Percentage residues 0 min” value came out at 100.0% and the “Percentage residues 120 min” value is on record as 28.12%. In the data set with human kidney microsomes (Without NADPH), the “Percentage residues 0 min” value is on record as 100.0%, the “Percentage residues 15 min” value is 85.59%, the “Percentage residues 30 min” value is reported as 86.82% and the “Percentage residues 60 min” value turned out to be 90.39%. Further, the “Percentage residues 120 min” value with human kidney microsomes (Without NADPH) is 90.95%.

On to “Insulin: insulin, 0.65 IU/kg subcutaneous, used to induce hypoglycemia in the modeling groups [reference compound]”, for which, in data set [1], the “Blood glucose 60 min” value is recorded as 3.47 mmol/L, the “Blood glucose 75 min” value worked out at 4.15 mmol/L, the “Blood glucose 90 min” value came to 4.85 mmol/L and the “Blood glucose 105 min” value was found to be 5.42 mmol/L.

B1: Glucagon analog compound 47 (peptide)
peptide: H-HSHGTFTSDYSKYLDL[Aib]RAQEFVEWLEST-OH
SMILES: CC(C)C[C@H](NC(=O)[C@H](Cc1ccc(O)cc1)NC(=O)[C@H](CCCCN)NC(=O)[C@H](CO)NC(=O)[C@H](Cc1ccc(O)cc1)NC(=O)[C@H](CC(=O)O)NC(=O)[C@H](CO)NC(=O)[C@@H](NC(=O)[C@H](Cc1ccccc1)NC(=O)[C@@H](NC(=O)CNC(=O)[C@H](Cc1c[nH]cn1)NC(=O)[C@H](CO)NC(=O)[C@@H](N)Cc1c[nH]cn1)[C@@H](C)O)[C@@H](C)O)C(=O)N[C@@H](CC(=O)O)C(=O)N[C@@H](CC(C)C)C(=O)NC(C)(C)C(=O)N[C@@H](CCCNC(=N)N)C(=O)N[C@@H](C)C(=O)N[C@@H](CCC(N)=O)C(=O)N[C@@H](CCC(=O)O)C(=O)N[C@@H](Cc1ccccc1)C(=O)N[C@H](C(=O)N[C@@H](CCC(=O)O)C(=O)N[C@@H](Cc1c[nH]c2ccccc12)C(=O)N[C@@H](CC(C)C)C(=O)N[C@@H](CCC(=O)O)C(=O)N[C@@H](CO)C(=O)N[C@H](C(=O)O)[C@@H](C)O)C(C)C
For B1, in data set [2], the “Human GCGR receptor EC50 (nM), cAMP HTRF in CHO-K1/GCGR/CRE-Luc cells” value was 0.076 nM and the “Relative activity (%) (normalized by the activity of the native glucagon), cAMP HTRF” value amounted to 253%.

B2: Glucagon analog compound 43 (peptide)
peptide: H-HSHGTFTSDYSKYLDL[Aib]RAQEFVQWLEST-OH
SMILES: CC(C)C[C@H](NC(=O)[C@H](Cc1ccc(O)cc1)NC(=O)[C@H](CCCCN)NC(=O)[C@H](CO)NC(=O)[C@H](Cc1ccc(O)cc1)NC(=O)[C@H](CC(=O)O)NC(=O)[C@H](CO)NC(=O)[C@@H](NC(=O)[C@H](Cc1ccccc1)NC(=O)[C@@H](NC(=O)CNC(=O)[C@H](Cc1c[nH]cn1)NC(=O)[C@H](CO)NC(=O)[C@@H](N)Cc1c[nH]cn1)[C@@H](C)O)[C@@H](C)O)C(=O)N[C@@H](CC(=O)O)C(=O)N[C@@H](CC(C)C)C(=O)NC(C)(C)C(=O)N[C@@H](CCCNC(=N)N)C(=O)N[C@@H](C)C(=O)N[C@@H](CCC(N)=O)C(=O)N[C@@H](CCC(=O)O)C(=O)N[C@@H](Cc1ccccc1)C(=O)N[C@H](C(=O)N[C@@H](CCC(N)=O)C(=O)N[C@@H](Cc1c[nH]c2ccccc12)C(=O)N[C@@H](CC(C)C)C(=O)N[C@@H](CCC(=O)O)C(=O)N[C@@H](CO)C(=O)N[C@H](C(=O)O)[C@@H](C)O)C(C)C
In the case of B2, in data set [2], the “Human GCGR receptor EC50 (nM), cAMP HTRF in CHO-K1/GCGR/CRE-Luc cells” value was found to be 0.052 nM and the “Relative activity (%) (normalized by the activity of the native glucagon), cAMP HTRF” value was 371%.

B3: Glucagon analog compound 39 (peptide)
peptide: H-HSQGTFTSDYSKYLDT[Aib]RAQEFVQWLEST-OH
SMILES: CC(C)C[C@H](NC(=O)[C@H](Cc1c[nH]c2ccccc12)NC(=O)[C@H](CCC(N)=O)NC(=O)[C@@H](NC(=O)[C@H](Cc1ccccc1)NC(=O)[C@H](CCC(=O)O)NC(=O)[C@H](CCC(N)=O)NC(=O)[C@H](C)NC(=O)[C@H](CCCNC(=N)N)NC(=O)C(C)(C)NC(=O)[C@@H](NC(=O)[C@H](CC(=O)O)NC(=O)[C@H](CC(C)C)NC(=O)[C@H](Cc1ccc(O)cc1)NC(=O)[C@H](CCCCN)NC(=O)[C@H](CO)NC(=O)[C@H](Cc1ccc(O)cc1)NC(=O)[C@H](CC(=O)O)NC(=O)[C@H](CO)NC(=O)[C@@H](NC(=O)[C@H](Cc1ccccc1)NC(=O)[C@@H](NC(=O)CNC(=O)[C@H](CCC(N)=O)NC(=O)[C@H](CO)NC(=O)[C@@H](N)Cc1c[nH]cn1)[C@@H](C)O)[C@@H](C)O)[C@@H](C)O)C(C)C)C(=O)N[C@@H](CCC(=O)O)C(=O)N[C@@H](CO)C(=O)N[C@H](C(=O)O)[C@@H](C)O
Regarding B3, in data set [2], the “Human GCGR receptor EC50 (nM), cAMP HTRF in CHO-K1/GCGR/CRE-Luc cells” value was found to be 0.072 nM and the “Relative activity (%) (normalized by the activity of the native glucagon), cAMP HTRF” value was 268%. For the same molecule, in data set [3], the “GLP-1R % Activity relative to native GLP-1, cAMP HTRF” value worked out at 0.212% and the “GLP-1R EC50 (nM), cAMP HTRF in CHO-GLP-1R cells” value was found to be 127 nM. In data set [4], the “GIPR % Activity relative to native GIP, cAMP HTRF” value is under 0.07% and the “GIPR EC50 (nM), cAMP HTRF in CHO-K1/GIPR cells” value is over 100 nM.

B4: Glucagon analog compound 42 (peptide)
peptide: H-HSQGTFTSDYSKYLDI[Aib]RAQEFVQWLEST-OH
SMILES: CC[C@H](C)[C@H](NC(=O)[C@H](CC(=O)O)NC(=O)[C@H](CC(C)C)NC(=O)[C@H](Cc1ccc(O)cc1)NC(=O)[C@H](CCCCN)NC(=O)[C@H](CO)NC(=O)[C@H](Cc1ccc(O)cc1)NC(=O)[C@H](CC(=O)O)NC(=O)[C@H](CO)NC(=O)[C@@H](NC(=O)[C@H](Cc1ccccc1)NC(=O)[C@@H](NC(=O)CNC(=O)[C@H](CCC(N)=O)NC(=O)[C@H](CO)NC(=O)[C@@H](N)Cc1c[nH]cn1)[C@@H](C)O)[C@@H](C)O)C(=O)NC(C)(C)C(=O)N[C@@H](CCCNC(=N)N)C(=O)N[C@@H](C)C(=O)N[C@@H](CCC(N)=O)C(=O)N[C@@H](CCC(=O)O)C(=O)N[C@@H](Cc1ccccc1)C(=O)N[C@H](C(=O)N[C@@H](CCC(N)=O)C(=O)N[C@@H](Cc1c[nH]c2ccccc12)C(=O)N[C@@H](CC(C)C)C(=O)N[C@@H](CCC(=O)O)C(=O)N[C@@H](CO)C(=O)N[C@H](C(=O)O)[C@@H](C)O)C(C)C
Turning to B4, in data set [2], the “Human GCGR receptor EC50 (nM), cAMP HTRF in CHO-K1/GCGR/CRE-Luc cells” value was found to be 0.093 nM and the “Relative activity (%) (normalized by the activity of the native glucagon), cAMP HTRF” value is 207%. Moreover, in data set [3], the “GLP-1R % Activity relative to native GLP-1, cAMP HTRF” value stood at 0.291% and the “GLP-1R EC50 (nM), cAMP HTRF in CHO-GLP-1R cells” value is 92.1 nM. In data set [4], the “GIPR % Activity relative to native GIP, cAMP HTRF” value was under 0.07% and the “GIPR EC50 (nM), cAMP HTRF in CHO-K1/GIPR cells” value is over 100 nM.
